Data published in the nanobody polyreactivity screen of Harvey et al. (2022).

Test: yeast display, Sf9 membrane polyspecificity reagent, FACS + sequencing; frameworks hold sequencing errors
Summary of the method: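 Genes from sorted yeast were amplified by colony PCR, read by MiSeq 2 × 250 sequencing and filtered on CDR length. These cells carried a synthetic nanobody library in Saccharomyces cerevisiae BJ5465 and were sorted by FACS into low and high (top ~1%) gates on anti-HA and streptavidin fluorescence. Polyreactivity is labelled according to the gate of origin.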

## QVHLVESGGGLVQAGGSLRISCAASGFIFEPYAMGWYRQAPGKERELVAAISSTGGSTYADSVKGRFTISRDNAKNTVYIQMNSLKPEDTEGYYCAAKVRISRYTYGYWGQGNQVTVSS
  polyreactivity (PSR sort gate): high polyreactivity

## QVHLVESGGGLVQAGGSLRISCAASGSTFYYYTMGWYRQAPGKERELVAISWDGDSTYYADSVKGRFTISRDNAKNTVYLQMNSLKPEDTAVYYFNAEYTWSGTKIYTYKYDFWGPGTQVTVSS
  polyreactivity (PSR sort gate): low polyreactivity

## QVHLVESGGGLVQAGGSLRITCAASGRIFWSYAMGWYRQAPGKEMELVAAITWSGGSTYYADSVKGRFTISRDNAKNTVYLQMIRLKPEDTAVYYCNAATGQPVGLDYWGQGTQVTVSS
  polyreactivity (PSR sort gate): low polyreactivity

## QVHLVESGGGLVQAGGSLRLICAASGFTFAVYAMGWYRQAPGKERELVAAISRSSGRTYYADSVKGRFTISRDNAKNTVYLQMNSLKPEDTAVYYCNARRGSPAPYDYWGQGTQVTVSS
  polyreactivity (PSR sort gate): high polyreactivity

## QVHLVESGGGLVQAGGSLRLICAASGSTFWSYAMGWYRQAPGKERELVAAITSGGRTYYADSVKGRFTISRDNAKNTVYLQMNRLKPEYTAVYNCNAVVRHTYRRFDYWGQGTQVTVSS
  polyreactivity (PSR sort gate): high polyreactivity

## QVHLVESGGGLVQAGGSLRLSCAASASTFLYYAMGWNRQPPGKERELVAVISWSGVSTYYADSVKGRFTSSRDNAKYTVYLQMNSLKPEDTAVYYCNTGNHYIRTYGYWGQGTQVTVSS
  polyreactivity (PSR sort gate): low polyreactivity

## QVHLVESGGGLVQAGGSLRLSCAASASTFQSNAMGWYRQAPGKERELVATITQSGATTYYADSVKGRFTISRDYAKNTVYLQMNSLKPEDTAVYYCNVDTFQKRWFWLDLDGGYWGQGTQVTVSS
  polyreactivity (PSR sort gate): low polyreactivity

## QVHLVESGGGLVQAGGSLRLSCAASGFIFHLNSMGWYRQAPGTERELVAAFSWNGGSTFYADSVKGRFTISRDNAKNTVYLQMNSLKPEDTAVYYCNADFRPAYTYDYWGQGTQVTVSS
  polyreactivity (PSR sort gate): low polyreactivity

## QVHLVESGGGLVQAGGSLRLSCAASGFIFHYNAMGWYRQAPGKERELVAAITSGDSTDYADSVKGRFTISRDNAKNTVYLQMNSLIPEDTAVYYCAAYHREGRRDDYWGQGTQVTVSS
  polyreactivity (PSR sort gate): low polyreactivity

## QVHLVESGGGLVQAGGSLRLSCAASGFIFSCYAMGWYRQAPGKERELVATITSGGSTVYADSVKGRFTISRDNAKNTVSLEMNSLKPEDTAVYYSNVDSTLYYLSRDYDYWGQATQVTVSS
  polyreactivity (PSR sort gate): high polyreactivity

## QVHLVESGGGLVQAGGSLRLSCAASGFIFVRNARGWYRQAPGKERELVARISRSGGSTYYADSVKGRFTISRDNAKNTVYLQMNSLKQEDTAVYYCAAVLQAYPRLDYWGQGTQVTVSS
  polyreactivity (PSR sort gate): high polyreactivity

## QVHLVESGGGLVQAGGSLRLSCAASGFIFYSNAMGWYRQAPGKERELVAAISSGGGSTRYADSVKGRFTISRDNAKNTVYLQMNSLKPQDTAVYYCAAREGYTKFRSTRYYYWGQGTQVTVSS
  polyreactivity (PSR sort gate): high polyreactivity

## QVHLVESGGGLVQAGGSLRLSCAASGFIRNYAMGWYRQAPGKERELVAAITSSGGRTYYADSVKGRFTISRDNAKNRVYLQMNSLKPEDTAVYYCAAPSRITTGPHREYDYWGQGTLVTVSS
  polyreactivity (PSR sort gate): high polyreactivity

## QVHLVESGGGLVQAGGSLRLSCAASGFTFGIYAMGWYRQAPGKERELVAAIRKGGGSTYYADSVKGRFTISRDNAKNTVYLQMNSLKPEDTAVYYCAADSYRDWHDYWGQGTQVTVSS
  polyreactivity (PSR sort gate): low polyreactivity

## QVHLVESGGGLVQAGGSLRLSCAASGFTFPWYAMGWYRQAPGKERELVAAINTGGSTYYADSVKGRFSISRDNAKNTVYLQMNSLKPDDTEVYYCATLGRYRYLNTYYWGSHDYWGQGTQVTVSS
  polyreactivity (PSR sort gate): high polyreactivity

## QVHLVESGGGLVQAGGSLRLSCAASGFTFRTYAMGWYRQAPGKERELVAAITRNGGTYYADSVKGRFTISRDNAKNTVNLQMNSLKPEDTAVYYCATDPAYWGDQPPEDDYWGQGTQVTVSS
  polyreactivity (PSR sort gate): low polyreactivity

## QVHLVESGGGLVQAGGSLRLSCAASGFTFSFYAMGWYRQAPGKERELVAAIDRSGGSTYYADSVKGRFTISRDNAKNTVYLQMNSLKPEDTAFYYCAATVFYGYYYWGQGTQVTVSS
  polyreactivity (PSR sort gate): high polyreactivity
